Measurements reported in patent US8183340B2, “GLP-1 pegylated compounds” (Eli Lilly and Company, priority 2005, dated 2012).
Where no end group is shown, it is not given here. PEG = not defined here

How the values were obtained:
Insulin = test: Pharmacodynamic analysis: stepped intravenous glucose infusion, insulin levels by immunoassay; format: in vivo, male cynomolgus monkeys; conditions: for Insulin AUC, AUClast: stepped IV glucose infusion, mean
Protocol: A PEGylated GLP-1 compound of Formula I, wherein Xaa8 is Val; Xaa22 is Glu; Xaa33 is Ile; and Xaa46 is Cys-NH2 is administered by subcutaneous (SC) route at a dose of 0.01 mg/kg to male cynomolgus monkeys. A stepped intravenous glucose infusion is conducted immediately after SC administration of vehicle control (phosphate buffered saline) and 1, 5, and 7 days after SC administration of 0.01 mg/kg PEGylated GLP-1 analog. Stepped intravenous glucose infusion procedures are conducted in sedated monkeys after a 16-hour fast. Blood samples are drawn at 10 minutes prior to start of glucose infusion and immediately prior to start of glucose infusion to define baseline. A stepped infusion of glucose (20% dextrose) is then initiated at a rate of 10 mg/kg/min for 20 minutes followed by an infusion of 25 mg/kg/min for an additional 20 minutes. Blood samples are taken at 10-minute intervals throughout the infusion period. Insulin levels are determined by immunoassay. […] Representative data are shown below in Table 3.

human GLP-1 receptor = molecular target: T1, human GLP-1 receptor (Homo sapiens, UniProt P43220); test: In vitro activity assay, CRE-Luciferase in HEK-293 cells stably expressing the human GLP-1 receptor; format: cell-based; conditions: 5 hours incubation
T1 construct: expressed in transfected cells
T1 sequence (P43220 24-463): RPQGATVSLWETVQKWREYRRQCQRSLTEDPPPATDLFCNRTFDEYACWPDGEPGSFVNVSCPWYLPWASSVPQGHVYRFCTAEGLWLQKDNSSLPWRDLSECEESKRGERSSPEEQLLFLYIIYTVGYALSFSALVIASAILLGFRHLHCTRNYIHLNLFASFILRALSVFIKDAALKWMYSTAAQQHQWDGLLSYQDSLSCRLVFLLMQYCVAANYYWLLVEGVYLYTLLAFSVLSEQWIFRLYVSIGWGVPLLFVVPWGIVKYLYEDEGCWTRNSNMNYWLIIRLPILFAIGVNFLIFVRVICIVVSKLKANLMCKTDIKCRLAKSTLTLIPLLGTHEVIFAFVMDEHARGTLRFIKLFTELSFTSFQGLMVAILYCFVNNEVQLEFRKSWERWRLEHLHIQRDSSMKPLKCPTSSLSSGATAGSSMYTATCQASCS
Protocol: “In vitro potency” as used herein, is the measure of the ability of a peptide to activate the GLP-1 receptor in a cell-based assay. In vitro potency is expressed as the “EC50” which is the effective concentration of compound that results in 50% activity in a single dose-response experiment. For the purposes of the present invention, in vitro potency is determined using a […] assay that employs HEK-293 cells that stably express the human GLP-1 receptor. These HEK-293 cells have stably integrated a DNA vector having a cAMP response element (CRE) driving expression of the luciferase gene. The interaction of a GLP-1 compound or a PEGylated GLP-1 compound with the receptor initiates a signal that results in activation of the cAMP response element and subsequent expression of luciferase. The EC50 values for the PEGylated GLP-1 compounds listed in Example 3 were determined using the luciferase assay described above. Relative in vitro potency values may be established by running Val8-GLP-1(7-37)OH or native GLP-1 as a control and assigning the control a reference value of 100%.
HEK-293 cells stably expressing the human GLP-1 receptor, using a CRE-Luciferase system, are seeded at 30,000 cells/well/80 μl low serum DMEM F12 medium into 96 well plates. […] Plates are placed in a Tri-lux luminometer and light output resulting from luciferase expression is calculated.

[1] = Pharmacokinetic analysis after IV or SC administration to male SD rats (plasma, N-terminal specific radioimmunoassay); format: in vivo; conditions: for AUC0-last / CL/F (total body clearance as a function of bioavailability) / Cmax (maximum observed plasma concentration) / Tmax (time of maximum observed plasma concentration) / t1/2 (elimination half-life): mean
Protocol: A PEGylated GLP-1 compound of Formula I, wherein Xaa8 is Val; Xaa22 is Glu; Xaa33 is Ile; and Xaa46 is Cys-NH2 is administered by intravenous (IV) or subcutaneous (SC) routes at a dose of 0.1 mg/kg to male SD rats. The animals (3 rats per group) are bled at various times between 0 and 192 hours after dosing. Plasma is collected from each sample and analyzed by N-terminal specific radioimmunoassay. Pharmacokinetic parameters are calculated using noncompartmental methods (WinNonlin Pro). By IV administration, the PEGylated GLP-1 analog has an elimination half-life of approximately 1.2 days while by SC administration the PEGylated GLP-1 analog has an elimination half-life of approximately 1.1 days. […] Prolonged elimination half-life, slow clearance and subcutaneous bioavailability (approximately 30%) are observed for the compound. Representative data are shown below in Table 1

[2] = Pharmacokinetic analysis after SC administration to male cynomolgus monkeys (serum, N-terminal specific radioimmunoassay); format: in vivo; conditions: 0.01 mg/kg, mean
Protocol: A PEGylated GLP-1 compound of Formula I, wherein Xaa8 is Val; Xaa22 is Glu; Xaa33 is Ile; and Xaa46 is Cys-NH2 is administered by subcutaneous (SC) route at a dose of 0.01 mg/kg to male cynomolgus monkeys. The animals are bled at various times between 0 and 168 hours after dosing. Serum is collected from each sample and analyzed by N-terminal specific radioimmunoassay. Pharmacokinetic parameters are calculated using noncompartmental methods (WinNonlin Pro). Representative data are shown below in Table 2.

Substance: PEGylated GLP-1 compound of Formula I, wherein Xaa8 is Val; Xaa22 is Glu; Xaa33 is Ile; and Xaa46 is Cys-NH2: Formula I (SEQ ID NO: 1) peptide, one PEG molecule covalently attached to Cys45 and one to Cys46-NH2 (HVEGTFTSDVSSYLEEQAAKEFIAWLIKGGPSSGAPPPC(PEG)C(PEG)-NH2; reading uncertain)
- Insulin AUC, AUClast (Insulin; Day 1 after SC 0.01 mg/kg): 30862 pM·min
- Insulin AUC, AUClast (Insulin; Day 5 after SC 0.01 mg/kg): 27203 pM·min
- Insulin AUC, AUClast (Insulin; Day 7 after SC 0.01 mg/kg): 28542 pM·min
- duration of insulinotropic activity (Insulin; single SC injection of 0.01 mg/kg, relative to placebo, p<0.0001): at least 7 days
- EC50 (human GLP-1 receptor): 0.36 ± 0.04 nM
- adverse clinical observations ([1]; IV or SC administration of 0.1 mg/kg): No adverse clinical observations
- elimination half-life ([1]; IV, 0.1 mg/kg): approximately 1.2 days
- AUC0-last ([1]; IV, 0.1 mg/kg): 52292 ng·h/mL
- CL/F (total body clearance as a function of bioavailability) ([1]; IV, 0.1 mg/kg): 1.9 mL/h/kg
- Cmax (maximum observed plasma concentration) ([1]; IV, 0.1 mg/kg): 2020 ng/mL
- Tmax (time of maximum observed plasma concentration) ([1]; IV, 0.1 mg/kg): 0.08 h
- t1/2 (elimination half-life) ([1]; IV, 0.1 mg/kg): 25.8 h
- elimination half-life ([1]; SC, 0.1 mg/kg): approximately 1.1 days
- subcutaneous bioavailability ([1]; SC, 0.1 mg/kg): approximately 30%
- AUC0-last ([1]; SC, 0.1 mg/kg): 15423 ng·h/mL
- CL/F (total body clearance as a function of bioavailability) ([1]; SC, 0.1 mg/kg): 6.5 mL/h/kg
- Cmax (maximum observed plasma concentration) ([1]; SC, 0.1 mg/kg): 191 ng/mL
- Tmax (time of maximum observed plasma concentration) ([1]; SC, 0.1 mg/kg): 24.0 h
- t1/2 (elimination half-life) ([1]; SC, 0.1 mg/kg): 28.3 h
- AUC0-last [2]: 7464.78 ng·h/mL
- CL/F (total body clearance as a function of bioavailability) [2]: 1.06 mL/h/kg
- Cmax (maximum observed serum concentration) [2]: 69.49 ng/mL
- Tmax (time of maximum observed serum concentration) [2]: 48 h
- t1/2 (elimination half-life estimate) [2]: 75.69 h

Substance: PEGylated GLP-1 compound of Formula I, wherein Xaa8 is Val; Xaa22 is Glu; Xaa33 is Ile; and Xaa46 is Cys: Formula I (SEQ ID NO: 1) peptide, one PEG molecule covalently attached to Cys45 and one to Cys46 (HVEGTFTSDVSSYLEEQAAKEFIAWLIKGGPSSGAPPPC(PEG)C(PEG); reading uncertain)
- EC50 (human GLP-1 receptor): 0.22 ± 0.03 nM
